Article PMC3902948

B1: Prp43 (Saccharomyces cerevisiae S288C) (protein)
chain: MGSKRRFSSEHPDPVETSIPEQAAEIAEELSKQHPLPSEEPLVHHDAGEFKGLQRHHTSAEEAQKLEDGKINPFTGREFTPKYVDILKIRRELPVHAQRDEFLKLYQNNQIMVFVGETGSGKTTQIPQFVLFDEMPHLENTQVACTQPRRVAAMSVAQRVAEEMDVKLGEEVGYSIRFENKTSNKTILKYMTDGMLLREAMEDHDLSRYSCIILDEAHERTLATDILMGLLKQVVKRRPDLKIIIMSATLDAEKFQRYFNDAPLLAVPGRTYPVELYYTPEFQRDYLDSAIRTVLQIHATEEAGDILLFLTGEDEIEDAVRKISLEGDQLVREEGCGPLSVYPLYGSLPPHQQQRIFEPAPESHNGRPGRKVVISTNIAETSLTIDGIVYVVDPGFSKQKVYNPRIRVESLLVSPISKASAQQRAGRAGRTRPGKCFRLYTEEAFQKELIEQSYPEILRSNLSSTVLELKKLGIDDLVHFDFMDPPAPETMMRALEELNYLACLDDEGNLTPLGRLASQFPLDPMLAVMLIGSFEFQCSQEILTIVAMLSVPNVFIRPTKDKKRADDAKNIFAHPDGDHITLLNVYHAFKSDEAYEYGIHKWCRDHYLNYRSLSAADNIRSQLERLMNRYNLELNTTDYESPKYFDNIRKALASGFFMQVAKKRSGAKGYITVKDNQDVLIHPSTVLGHDAEWVIYNEFVLTSKNYIRTVTSVRPEWLIEIAPAYYDLSNFQKGDVKLSLERIKEKVDRLNELKQGKNKKKSKHSKK
B2: Prp43/Ntr1(51–110) (Saccharomyces cerevisiae S288C) (protein)
chain: B1 chain
B3: Prp43/Ntr1(1–120) (Saccharomyces cerevisiae S288C) (protein)
chain: B1 chain

Each protein was assayed on Nc1ncnc2c1ncn2[C@@H]1O[C@H](COP(=O)(O)OP(=O)(O)OP(=O)(O)O)[C@@H](O)[C@H]1O (assay: purified protein). Conditions: no RNA, 100 mM NaCl, 10 mM Tris pH 7.5, 2 mM MgCl2.
B1 gave a Km of 11.07 ± 2.07 µM and a Vmax of 2.43 µM/min. For B2, the Km was 13.42 ± 1.93 µM and the Vmax was 9.54 µM/min. B3 gave a Km of 16.37 ± 1.81 µM and a Vmax of 11.2 µM/min.
